Laboratory results as given in US20140147456A1 (AFFIRIS, published 2014).

B1: monoclonal antibody 12/B3-5-B11 (antibody, V domains shown)
VH: DVQLQESGPGLVKPSQSLSLTCTVTGYSITSDYAWNWIRQFPGNKLEWMGYISYSGTTTYNPSLKSRISITRHTSKNQFFLQLNSVTTEDSATYYCTRLGYYFDYWGQGTTLTVSS
VL: DIVMTQSPASLAMSVGQKVTMNCKSSQSLLSSKNQKNFLAWYQQKPGQSPKVLVYFASTRASGVPDRFIGSGSGTDFTLTISSVQAEDLADYFCQQQYNTPLTFGAGTKLELK
B2: monoclonal antibody CJ7-6-B7 (antibody, V domains shown)
VH: NVQLQESGPGLVKPSQSLSLTCTVTGHSITSDYAWNWIRQFPGNKLEWMGYITNSGSTTYNPSLKSRISITRDTSKNQFFLQLNSVTTEDTATYYCTRGGPYWGQGTLVTVSA
VL: DIVMTQSQKFMSTSVGDRVSITCKASQNVGTAVVWYQQKPGQSPKLLIYSASNRYTGVPDRFTGSGSGTDFTLTITNMQSEDLADYFCQQYSSYPLTFGAGTKLELK
B3: monoclonal antibody BTS4-1 (antibody, V domains shown)
VH: QIQLVQSGPELKKPGETVKISCKASGYTFTDCSMHWVKQAPGQGLKWMGWINTKTGEPTYADDFKGRFAFSLETSASTAYLQINILKNEDSATYFCAAHSGKDYAIDYWGQGTSVTVSS
VL: DVLMTQTPLSLPVSLGDQASISCRSSQSIVHRNGNTYLEWYLQKPGQSPKLLIYKVSNRFSGVPDRFSGSGSGTDFTLRISRVEAQDLGVYFCFQGSRVPPTFGGGTKLEIK
B4: monoclonal antibody 5/C7-6-C8 (antibody, V domains shown)
VH: EVQLVESGGGLVEPGGSLKLSCVASGFTFSTYAMSWFRLTPERRLEWVAAISNGGSQNSYPDSVKGRFTVSRDNAKNTLYLQMSSLRSEDTAMYYCSRNGNYFDYWGQGTTLTVSS
VL: QIVLTQSPAIMSASPGEKVTMTCSASSSISYMHWYQQKPGTSPKRWIFDTSKLASGVPARFSGSGSGTSYSLTISSMEAEDAATYYCHQRSSYPTFGSGTKLEIK

target: T1, recombinantly expressed human CETP N-terminally fused to GST (human, UniProt P11597 18-493, limits assumed); assay: human CETP protein ELISA, coated protein, antibody titrated
T1 construct: coated antigen of the protein ELISA; also called GST-CETP; CETP protein; not shown: GST (Glutathione-S-transferase) tag at the N-terminus
T1 sequence (looked up): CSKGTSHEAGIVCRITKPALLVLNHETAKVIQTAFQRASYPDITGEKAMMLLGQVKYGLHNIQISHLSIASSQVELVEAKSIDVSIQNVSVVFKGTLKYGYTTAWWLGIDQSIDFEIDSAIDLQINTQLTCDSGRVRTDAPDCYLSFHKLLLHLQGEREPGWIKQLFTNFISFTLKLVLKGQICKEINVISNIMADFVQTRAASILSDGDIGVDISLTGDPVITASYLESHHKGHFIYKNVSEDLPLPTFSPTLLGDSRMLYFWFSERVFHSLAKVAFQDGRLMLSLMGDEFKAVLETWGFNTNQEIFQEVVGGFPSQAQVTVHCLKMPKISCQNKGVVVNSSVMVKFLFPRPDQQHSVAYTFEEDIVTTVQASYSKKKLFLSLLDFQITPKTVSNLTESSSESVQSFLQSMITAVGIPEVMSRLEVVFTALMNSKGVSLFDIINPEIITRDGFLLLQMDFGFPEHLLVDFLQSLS

Binding result, binds:
B1, B2, B3, B4
